The values below come from patent US20200262868A1 (DIGNIFY THERAPEUTICS, published 2020).

Where no end group is shown, it is not given here. [ ]: non-standard residue; d: D form. NMeL = CN[C@@H](CC(C)C)C(=O)O; Nle = CCCC[C@H](N)C(=O)O

The target in experiment [1] is T1, human NK2 Receptor (human, UniProt P21452 1-398).
T1 construct: whole, on cells; calcium assays used intact CHO-hNK2 cells; also called hNK2R; hNK2
T1 sequence (looked up): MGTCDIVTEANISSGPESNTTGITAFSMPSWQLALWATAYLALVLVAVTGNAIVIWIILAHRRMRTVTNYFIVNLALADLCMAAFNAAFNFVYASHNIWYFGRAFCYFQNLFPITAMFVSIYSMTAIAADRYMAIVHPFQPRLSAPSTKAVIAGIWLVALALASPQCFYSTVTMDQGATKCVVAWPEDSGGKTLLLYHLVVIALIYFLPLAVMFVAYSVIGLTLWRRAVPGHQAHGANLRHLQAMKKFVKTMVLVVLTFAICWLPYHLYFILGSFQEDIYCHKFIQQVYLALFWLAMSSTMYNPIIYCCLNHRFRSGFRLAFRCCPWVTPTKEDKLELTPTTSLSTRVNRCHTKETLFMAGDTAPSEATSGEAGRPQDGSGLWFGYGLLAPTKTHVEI
In words: radioligand competition, displacement of 0.1 nM [125I]-NKA from CHO-hNK2 membranes. For orientation: Displacement assays read how much labelled ligand stays bound in the presence of the test substance.
Procedure: (§1) Filtration Assays: Stock solutions of compounds (10 mM) were prepared in DMSO and stored at −20° C. until use. Further dilutions were performed in DMSO to provide an 11-point concentration response curve (CRC) spanning final concentrations from 0.01 nM to 10 μM. Radioligand binding experiments were performed immediately after transferring 2 μL of each concentration of test compound to a 96-well plate. […] After drying for 1 h at 40° C., 50 μL of Microscint-20 was added to each filter plate and bound radioactivity was measured using a Microplate TopCount (Packard C9912). […] Filters were washed 4 times with 1 mL ice cold 0.9% NaCl and placed into pico vials with 4 mL of Filter Count.

The target of experiment [2] is T1, human NK2 Receptor. In words: ratio of Ki hNK1R/hNK2R from the radioligand competition assays.
Procedure: as §1
The target in experiment [3] is T2, human NK1 Receptor (human, UniProt P25103 1-407).
T2 construct: whole, on cells; calcium assays used intact CHO-hNK1 cells; also called hNK1R; hNK1
T2 sequence (P25103 whole entry): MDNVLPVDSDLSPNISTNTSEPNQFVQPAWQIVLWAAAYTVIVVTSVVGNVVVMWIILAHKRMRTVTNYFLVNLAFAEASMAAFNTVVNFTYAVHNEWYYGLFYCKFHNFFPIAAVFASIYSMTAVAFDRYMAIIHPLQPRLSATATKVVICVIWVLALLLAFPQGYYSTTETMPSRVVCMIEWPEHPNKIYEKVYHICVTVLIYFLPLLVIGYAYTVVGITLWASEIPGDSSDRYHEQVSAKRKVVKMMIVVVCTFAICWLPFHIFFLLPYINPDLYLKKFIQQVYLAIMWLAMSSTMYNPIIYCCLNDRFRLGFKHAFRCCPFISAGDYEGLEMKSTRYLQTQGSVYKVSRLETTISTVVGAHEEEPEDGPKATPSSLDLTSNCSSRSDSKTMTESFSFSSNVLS
Nature of the experiment: radioligand competition, displacement of 5.0 nM [3H]-septide from CHO-hNK1 membranes.
Procedure: as §1

The target in experiment [4] is T1, human NK2 Receptor. Nature of the experiment: cell-based or functional assay.
Experiment [5] addresses T2, human NK1 Receptor. In words: cell-based or functional assay.
Experiment [6] has as its target T1, human NK2 Receptor. Nature of the experiment: cell-based or functional assay. The source holds these as a separate data set.
For experiment [7], the target named is T2, human NK1 Receptor. In words: cell-based or functional assay. The source holds these as a separate data set.

B1: Heptapeptide analog J, Asp-Arg-Phe-Val-Gly-Leu-Nle-NH2 (peptide)
peptide: DRFVGLX
HELM: PEPTIDE1{D.R.F.V.G.L.[Nle].[am]}$$$$V2.0; N-terminus assumed
SMILES: CCCC[C@H](NC(=O)[C@H](CC(C)C)NC(=O)CNC(=O)[C@@H](NC(=O)[C@H](Cc1ccccc1)NC(=O)[C@H](CCCNC(=N)N)NC(=O)[C@@H](N)CC(=O)O)C(C)C)C(N)=O
notes: synthetic heptapeptide analog of neurokinin A, Fmoc solid-phase synthesis; also called Compound J; Cmpd J
The molecule B1 had a Ki with human NK2 Receptor [1] of 1.74 nM. Besides, the hNK2 selectivity ratio in the experiment with human NK2 Receptor [2] was determined as 72.5 ratio. Further, the affinity with human NK1 Receptor [3] corresponds to a Ki of 126 nM. In the experiment with human NK2 Receptor [4], the “hNK2 EC50 (intracellular calcium mobilization, FLIPR, CHO-hNK2 cells)” value was 0.2 nM and the “hNK2 selectivity ratio (EC50 hNK1R/hNK2R)” value is 9 ratio. The “hNK1 EC50 (intracellular calcium mobilization, FLIPR, CHO-hNK1 cells)” value with human NK1 Receptor [5] was 1.71 nM. Further, in the experiment with human NK2 Receptor [6], the “maximal calcium response compared to Neurokinin A” value is > 80%. Moreover, the “maximal calcium response compared to Substance P” value with human NK1 Receptor [7] is > 90%.

B2: Heptapeptide analog A, Asp-Lys-Phe-Val-Gly-(NMe-Leu)-Met-NH2 (peptide)
peptide: DKFVG[NMeL]M-NH2
notes: synthetic heptapeptide analog of neurokinin A, Fmoc solid-phase synthesis; also called Compound A; Cmpd A
Regarding B2, the inhibitory constant (Ki) stood at 0.2 nM with human NK2 Receptor [1] and 50.1 nM with human NK1 Receptor [3]. Further, the “hNK2 EC50 (intracellular calcium mobilization, FLIPR, CHO-hNK2 cells)” value in the experiment with human NK2 Receptor [4] worked out at 0.14 nM. Also, the “hNK1 EC50 (intracellular calcium mobilization, FLIPR, CHO-hNK1 cells)” value with human NK1 Receptor [5] was determined as 0.95 nM. In the experiment with human NK2 Receptor [6], the “maximal calcium response compared to Neurokinin A” value was > 80%. Besides, the “maximal calcium response compared to Substance P” value with human NK1 Receptor [7] was > 90%.

B3: Heptapeptide analog I, Asp-Arg-Phe-Val-(β-Ala)-Leu-Met-NH2 (peptide)
peptide: DRFVALM
HELM: PEPTIDE1{D.R.F.V.[bAla].L.M.[am]}$$$$V2.0; N-terminus assumed
SMILES: CSCC[C@H](NC(=O)[C@H](CC(C)C)NC(=O)CCNC(=O)[C@@H](NC(=O)[C@H](Cc1ccccc1)NC(=O)[C@H](CCCNC(=N)N)NC(=O)[C@@H](N)CC(=O)O)C(C)C)C(N)=O
notes: synthetic heptapeptide analog of neurokinin A, Fmoc solid-phase synthesis; also called Compound I; Cmpd I
In the experiment with human NK2 Receptor [1], B3 gave a Ki of 0.88 nM. The hNK2 selectivity ratio with human NK2 Receptor [2] came out at 108 ratio. In the experiment with human NK1 Receptor [3], this molecule registered a Ki of 95.5 nM. In the experiment with human NK2 Receptor [4], the “hNK2 EC50 (intracellular calcium mobilization, FLIPR, CHO-hNK2 cells)” value came to 0.15 nM and the “hNK2 selectivity ratio (EC50 hNK1R/hNK2R)” value was 12 ratio. In addition, the “hNK1 EC50 (intracellular calcium mobilization, FLIPR, CHO-hNK1 cells)” value with human NK1 Receptor [5] was 1.83 nM. The “maximal calcium response compared to Neurokinin A” value with human NK2 Receptor [6] is > 80%. Also, in the experiment with human NK1 Receptor [7], the “maximal calcium response compared to Substance P” value is > 90%.

B4: Heptapeptide analog E, Asp-Lys-Phe-Val-(β-Ala)-Leu-Met-NH2 (peptide)
peptide: DKFVALM
HELM: PEPTIDE1{D.K.F.V.[bAla].L.M.[am]}$$$$V2.0; N-terminus assumed
SMILES: CSCC[C@H](NC(=O)[C@H](CC(C)C)NC(=O)CCNC(=O)[C@@H](NC(=O)[C@H](Cc1ccccc1)NC(=O)[C@H](CCCCN)NC(=O)[C@@H](N)CC(=O)O)C(C)C)C(N)=O
notes: synthetic heptapeptide analog of neurokinin A, Fmoc solid-phase synthesis; also called Compound E; Cmpd E
On to B4, for which the values for the Ki in the experiment with human NK2 Receptor [1] and with human NK1 Receptor [3] were 2.11 nM and 257 nM, respectively. Moreover, the hNK2 selectivity ratio with human NK2 Receptor [2] stood at 122 ratio. Besides, the “hNK2 EC50 (intracellular calcium mobilization, FLIPR, CHO-hNK2 cells)” value in the experiment with human NK2 Receptor [4] was 0.18 nM. Also, in the experiment with human NK2 Receptor [4], the “hNK2 selectivity ratio (EC50 hNK1R/hNK2R)” value is 36 ratio. In the experiment with human NK1 Receptor [5], the “hNK1 EC50 (intracellular calcium mobilization, FLIPR, CHO-hNK1 cells)” value is 6.31 nM. The “maximal calcium response compared to Neurokinin A” value with human NK2 Receptor [6] was > 80%. For the same molecule, the “maximal calcium response compared to Substance P” value with human NK1 Receptor [7] was > 90%.

B5: Heptapeptide analog H, Asp-Arg-Phe-Val-Gly-Leu-Met-NH2 (peptide)
peptide: DRFVGLM-NH2
notes: synthetic heptapeptide analog of neurokinin A, Fmoc solid-phase synthesis; also called Compound H; Cmpd H
Take B5: the affinity in the experiment with human NK2 Receptor [1], expressed as Ki, was 0.31 nM. Moreover, the hNK2 selectivity ratio with human NK2 Receptor [2] worked out at 27.1 ratio. Besides, the affinity with human NK1 Receptor [3] corresponds to a Ki of 8.32 nM. Besides, in the experiment with human NK2 Receptor [4], the “hNK2 EC50 (intracellular calcium mobilization, FLIPR, CHO-hNK2 cells)” value worked out at 0.19 nM and the “hNK2 selectivity ratio (EC50 hNK1R/hNK2R)” value came out at 0.8 ratio. The “hNK1 EC50 (intracellular calcium mobilization, FLIPR, CHO-hNK1 cells)” value in the experiment with human NK1 Receptor [5] turned out to be 0.16 nM. Moreover, in the experiment with human NK2 Receptor [6], the “maximal calcium response compared to Neurokinin A” value is > 80%. The “maximal calcium response compared to Substance P” value with human NK1 Receptor [7] was > 90%.

B6: Heptapeptide analog C, Asp-Arg-Phe-Val-Gly-(NMe-Leu)-Met-NH2 (peptide)
peptide: DRFVGLM
HELM: PEPTIDE1{D.R.F.V.G.[meL].M.[am]}$$$$V2.0; N-terminus assumed
SMILES: CSCC[C@H](NC(=O)[C@H](CC(C)C)N(C)C(=O)CNC(=O)[C@@H](NC(=O)[C@H](Cc1ccccc1)NC(=O)[C@H](CCCNC(=N)N)NC(=O)[C@@H](N)CC(=O)O)C(C)C)C(N)=O
notes: synthetic heptapeptide analog of neurokinin A, Fmoc solid-phase synthesis; also called Compound C; Cmpd C
On to B6, for which the Ki with human NK2 Receptor [1] came out at 0.12 nM. In addition, the hNK2 selectivity ratio in the experiment with human NK2 Receptor [2] turned out to be 167 ratio. This molecule also gave a Ki in the experiment with human NK1 Receptor [3] of 20.9 nM. Further, in the experiment with human NK2 Receptor [4], the “hNK2 EC50 (intracellular calcium mobilization, FLIPR, CHO-hNK2 cells)” value was 0.16 nM and the “hNK2 selectivity ratio (EC50 hNK1R/hNK2R)” value worked out at 2 ratio. Also, the “hNK1 EC50 (intracellular calcium mobilization, FLIPR, CHO-hNK1 cells)” value in the experiment with human NK1 Receptor [5] was 0.3 nM. Also, in the experiment with human NK2 Receptor [6], the “maximal calcium response compared to Neurokinin A” value was > 80%. In addition, the “maximal calcium response compared to Substance P” value with human NK1 Receptor [7] is > 90%.

B7: Heptapeptide analog B, Asp-Arg-Phe-Val-Gly-(NMe-Leu)-Nle-NH2 (peptide)
peptide: DRFVG[NMeL][Nle]-NH2
notes: synthetic heptapeptide analog of neurokinin A, Fmoc solid-phase synthesis; also called Compound B; Cmpd B
B7 registered an inhibition constant (Ki) with human NK2 Receptor [1] of 0.59 nM. The hNK2 selectivity ratio in the experiment with human NK2 Receptor [2] is 558 ratio. The molecule further gave a Ki with human NK1 Receptor [3] of 331 nM. Further, in the experiment with human NK2 Receptor [4], the “hNK2 EC50 (intracellular calcium mobilization, FLIPR, CHO-hNK2 cells)” value was determined as 0.08 nM and the “hNK2 selectivity ratio (EC50 hNK1R/hNK2R)” value came to 70 ratio. Besides, the “hNK1 EC50 (intracellular calcium mobilization, FLIPR, CHO-hNK1 cells)” value with human NK1 Receptor [5] was found to be 5.84 nM. For the same molecule, the “maximal calcium response compared to Neurokinin A” value in the experiment with human NK2 Receptor [6] is > 80%. Further, in the experiment with human NK1 Receptor [7], the “maximal calcium response compared to Substance P” value is > 90%.

B8: Heptapeptide analog K, Asp-Arg-Phe-Val-(β-Ala)-Leu-Nle-NH2 (peptide)
peptide: DRFVALX
HELM: PEPTIDE1{D.R.F.V.[bAla].L.[Nle].[am]}$$$$V2.0; N-terminus assumed
SMILES: CCCC[C@H](NC(=O)[C@H](CC(C)C)NC(=O)CCNC(=O)[C@@H](NC(=O)[C@H](Cc1ccccc1)NC(=O)[C@H](CCCNC(=N)N)NC(=O)[C@@H](N)CC(=O)O)C(C)C)C(N)=O
notes: synthetic heptapeptide analog of neurokinin A, Fmoc solid-phase synthesis; also called Compound K; Cmpd K
The molecule B8 displayed a Ki with human NK2 Receptor [1] of 6.85 nM. Also, in the experiment with human NK2 Receptor [2], the hNK2 selectivity ratio amounted to 176 ratio. Besides, in the experiment with human NK1 Receptor [3], the affinity, expressed as Ki, was 1200 nM. Further, in the experiment with human NK2 Receptor [4], the “hNK2 EC50 (intracellular calcium mobilization, FLIPR, CHO-hNK2 cells)” value came to 1.16 nM and the “hNK2 selectivity ratio (EC50 hNK1R/hNK2R)” value worked out at 25 ratio. Moreover, the “hNK1 EC50 (intracellular calcium mobilization, FLIPR, CHO-hNK1 cells)” value with human NK1 Receptor [5] came to 29.5 nM. Also, the “maximal calcium response compared to Neurokinin A” value with human NK2 Receptor [6] was > 80%. In addition, the “maximal calcium response compared to Substance P” value with human NK1 Receptor [7] was > 90%.

B9: Heptapeptide analog G, Asp-Lys-Phe-Val-(β-Ala)-Leu-Nle-NH2 (peptide)
peptide: DKFVALX
HELM: PEPTIDE1{D.K.F.V.[bAla].L.[Nle].[am]}$$$$V2.0; N-terminus assumed
SMILES: CCCC[C@H](NC(=O)[C@H](CC(C)C)NC(=O)CCNC(=O)[C@@H](NC(=O)[C@H](Cc1ccccc1)NC(=O)[C@H](CCCCN)NC(=O)[C@@H](N)CC(=O)O)C(C)C)C(N)=O
notes: synthetic heptapeptide analog of neurokinin A, Fmoc solid-phase synthesis; also called Compound G; Cmpd G
B9 displayed a Ki in the experiment with human NK2 Receptor [1] of 16.4 nM. Further, in the experiment with human NK2 Receptor [2], the hNK2 selectivity ratio is 189 ratio. Moreover, in the experiment with human NK1 Receptor [3], the Ki was determined as 3090 nM. For the same molecule, in the experiment with human NK2 Receptor [4], the “hNK2 EC50 (intracellular calcium mobilization, FLIPR, CHO-hNK2 cells)” value turned out to be 3 nM and the “hNK2 selectivity ratio (EC50 hNK1R/hNK2R)” value came out at 26 ratio. Besides, the “hNK1 EC50 (intracellular calcium mobilization, FLIPR, CHO-hNK1 cells)” value with human NK1 Receptor [5] is 78.2 nM. Besides, in the experiment with human NK2 Receptor [6], the “maximal calcium response compared to Neurokinin A” value was > 80%. Moreover, the “maximal calcium response compared to Substance P” value in the experiment with human NK1 Receptor [7] is > 90%.
For the molecule DKFVGLM-NH2 [Heptapeptide analog D, Asp-Lys-Phe-Val-Gly-Leu-Met-NH2], the “maximal calcium response compared to Neurokinin A” value in the experiment with human NK2 Receptor [6] is > 80%. Besides, in the experiment with human NK1 Receptor [7], the “maximal calcium response compared to Substance P” value is > 90%.

A word on the Ki: it is a measure of affinity in units of concentration, obtained from inhibition or displacement. Lower therefore signals higher affinity.
